Source: patent publication US20090298167A1 (Pfizer, published 2009)

Key:
[1] = target: murine IL-21R expressed on cells (murine, UniProt Q9JHX3 20-529); assay: cell-based or functional assay
[2] = target: human IL-21R expressed on cells (human, UniProt Q9HBE5 20-538); assay: cell-based or functional assay
human IL-21R expressed on cells, sequence (Q9HBE5 20-538 limits assumed): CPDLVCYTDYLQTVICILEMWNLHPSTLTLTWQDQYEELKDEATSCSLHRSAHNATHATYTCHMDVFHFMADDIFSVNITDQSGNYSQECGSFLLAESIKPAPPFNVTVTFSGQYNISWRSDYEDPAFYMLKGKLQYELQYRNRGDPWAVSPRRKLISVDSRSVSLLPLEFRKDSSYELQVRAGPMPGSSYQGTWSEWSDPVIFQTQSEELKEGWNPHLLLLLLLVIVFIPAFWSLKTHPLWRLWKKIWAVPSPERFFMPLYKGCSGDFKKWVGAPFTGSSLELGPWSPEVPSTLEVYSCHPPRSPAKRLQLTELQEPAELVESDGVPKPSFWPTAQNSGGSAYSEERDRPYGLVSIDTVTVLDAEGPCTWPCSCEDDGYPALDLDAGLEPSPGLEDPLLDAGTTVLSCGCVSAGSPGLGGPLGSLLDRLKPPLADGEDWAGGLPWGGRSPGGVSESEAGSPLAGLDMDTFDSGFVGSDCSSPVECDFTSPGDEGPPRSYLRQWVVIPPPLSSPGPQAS

murine IL-21R expressed on cells, sequence (Q9JHX3 20-529 limits assumed): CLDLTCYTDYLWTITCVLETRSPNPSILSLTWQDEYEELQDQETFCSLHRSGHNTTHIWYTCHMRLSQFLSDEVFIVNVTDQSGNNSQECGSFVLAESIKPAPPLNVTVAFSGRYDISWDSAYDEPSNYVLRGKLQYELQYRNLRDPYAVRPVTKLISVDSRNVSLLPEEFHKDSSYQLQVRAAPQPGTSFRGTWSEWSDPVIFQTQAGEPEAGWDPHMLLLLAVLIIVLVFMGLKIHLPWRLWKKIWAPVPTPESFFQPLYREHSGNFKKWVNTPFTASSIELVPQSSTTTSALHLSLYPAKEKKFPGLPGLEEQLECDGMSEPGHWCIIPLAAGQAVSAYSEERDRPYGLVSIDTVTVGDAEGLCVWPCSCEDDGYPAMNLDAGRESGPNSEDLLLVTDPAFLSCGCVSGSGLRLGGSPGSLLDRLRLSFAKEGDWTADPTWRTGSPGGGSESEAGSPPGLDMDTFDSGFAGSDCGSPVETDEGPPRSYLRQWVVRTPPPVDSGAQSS

Row | Binder | IC50 (nM) in Murine IL-21R-BaF3 Neutralization Assay [1] [nM] | IC50 (nM) in Human IL-21R-BaF3 Neutralization Assay [2] [nM] | IC50 (nM) in Human IL-21R-TF1 Neutralization Assay [2] [nM]
1 | scFv H3 (scFv) scFv: QVQLQESGPGLVKTSETLSLTCAVSGYSISSGYYWGWIRQPPGKGLEWIGSISHTGNTYYNPPLKSRVTISVDTSKNQFSLKLSSVTAADTAVYYCARFMGFGRPEYWGKGTLVTVSSGGGGSGGGGSGGGGSALSSELTQDPPVSVALGQTVTLTCQGDSLRTYYASWYQQKSGQAPILLLYGKHKRPSGIPDRFSGSTSGDTASLTITGAQAEDEADYYCNSRDSSGNPHVLFGGGTQLTVL | 25.7 | 7.7 | 98.1
2 | scFv H4 (scFv) scFv: QVQLQESGPGLVKTSETLSLTCAVSGYSISSGYYWGWIRQPPGKGLEWIGSISHTGNTYYNPPLKSRVTISVDTSKNQFSLKLSSVTAADTAVYYCARWLGFGRPEYWGKGTLVTVSSGGGGSGGGGSGGGGSALSSELTQDPPVSVALGQTVTLTCQGDSLRTYYASWYQQKSGQAPILLLYGKHKRPSGIPDRFSGSTSGDTASLTITGAQAEDEADYYCNSRDSSGNPHVLFGGGTQLTVL |  | 3.8 | 9.3
3 | scFv L12 (scFv) scFv: QVQLQESGPGLVKTSETLSLTCAVSGYSISSGYYWGWIRQPPGKGLEWIGSISHTGNTYYNPPLKSRVTISVDTSKNQFSLKLSSVTAADTAVYYCARGGGISRPEYWGKGTLVTVSSGGGGSGGGGSGGGGSALSSELTQDPPVSVALGQTVTLTCQGDSLRTYYASWYQQKSGQAPILLLYGKHKRPSGIPDRFSGSTSGDTASLTITGAQAEDEADYYCVARGTRGNPHVLFGGGTQLTVL | 87.8 | 2.6 | 54.9
4 | scFv L9 (scFv) scFv: QVQLQESGPGLVKTSETLSLTCAVSGYSISSGYYWGWIRQPPGKGLEWIGSISHTGNTYYNPPLKSRVTISVDTSKNQFSLKLSSVTAADTAVYYCARGGGISRPEYWGKGTLVTVSSGGGGSGGGGSGGGGSALSSELTQDPPVSVALGQTVTLTCQGDSLRTYYASWYQQKSGQAPILLLYGKHKRPSGIPDRFSGSTSGDTASLTITGAQAEDEADYYCVARSNKGNPHVLFGGGTQLTVL | 3.61 | 2.8 | 27.7
5 | scFv L11 (scFv) scFv: QVQLQESGPGLVKTSETLSLTCAVSGYSISSGYYWGWIRQPPGKGLEWIGSISHTGNTYYNPPLKSRVTISVDTSKNQFSLKLSSVTAADTAVYYCARGGGISRPEYWGKGTLVTVSSGGGGSGGGGSGGGGSALSSELTQDPPVSVALGQTVTLTCQGDSLRTYYASWYQQKSGQAPILLLYGKHKRPSGIPDRFSGSTSGDTASLTITGAQAEDEADYYCSSRSRHGNPHVLFGGGTQLTVL | 10 | 4.2 | 38.3
6 | scFv H6 (scFv) scFv: QVQLQESGPGLVKTSETLSLTCAVSGYSISSGYYWGWIRQPPGKGLEWIGSISHTGNTYYNPPLKSRVTISVDTSKNQFSLKLSSVTAADTAVYYCARFFGFGRPEYWGKGTLVTVSSGGGGSGGGGSGGGGSALSSELTQDPPVSVALGQTVTLTCQGDSLRTYYASWYQQKSGQAPILLLYGKHKRPSGIPDRFSGSTSGDTASLTITGAQAEDEADYYCNSRDSSGNPHVLFGGGTQLTVL |  | 13.8 | ~150
7 | scFv L8 (scFv) scFv: QVQLQESGPGLVKTSETLSLTCAVSGYSISSGYYWGWIRQPPGKGLEWIGSISHTGNTYYNPPLKSRVTISVDTSKNQFSLKLSSVTAADTAVYYCARGGGISRPEYWGKGTLVTVSSGGGGSGGGGSGGGGSALSSELTQDPPVSVALGQTVTLTCQGDSLRTYYASWYQQKSGQAPILLLYGKHKRPSGIPDRFSGSTSGDTASLTITGAQAEDEADYYCTTRSTQGNPHVLFGGGTQLTVL | 715 | 4.1 | 51.3
8 | scFv L6 (scFv) scFv: QVQLQESGPGLVKTSETLSLTCAVSGYSISSGYYWGWIRQPPGKGLEWIGSISHTGNTYYNPPLKSRVTISVDTSKNQFSLKLSSVTAADTAVYYCARGGGISRPEYWGKGTLVTVSSGGGGSGGGGSGGGGSALSSELTQDPPVSVALGQTVTLTCQGDSLRTYYASWYQQKSGQAPILLLYGKHKRPSGIPDRFSGSTSGDTASLTITGAQAEDEADYYCMSRSIWGNPHVLFGGGTQLTVL | 0.29 | 5.9 | ~150
9 | scFv L10 (scFv) scFv: QVQLQESGPGLVKTSETLSLTCAVSGYSISSGYYWGWIRQPPGKGLEWIGSISHTGNTYYNPPLKSRVTISVDTSKNQFSLKLSSVTAADTAVYYCARGGGISRPEYWGKGTLVTVSSGGGGSGGGGSGGGGSALSSELTQDPPVSVALGQTVTLTCQGDSLRTYYASWYQQKSGQAPILLLYGKHKRPSGIPDRFSGSTSGDTASLTITGAQAEDEADYYCISRSIYGNPHVLFGGGTQLTVL |  | 15.1 | 7
10 | scFv L5 (scFv) scFv: QVQLQESGPGLVKTSETLSLTCAVSGYSISSGYYWGWIRQPPGKGLEWIGSISHTGNTYYNPPLKSRVTISVDTSKNQFSLKLSSVTAADTAVYYCARGGGISRPEYWGKGTLVTVSSGGGGSGGGGSGGGGSALSSELTQDPPVSVALGQTVTLTCQGDSLRTYYASWYQQKSGQAPILLLYGKHKRPSGIPDRFSGSTSGDTASLTITGAQAEDEADYYCASRSSKGNPHVLFGGGTQLTVL | 38.5 | 2.1 | ~20
11 | scFv H5 (scFv) scFv: QVQLQESGPGLVKTSETLSLTCAVSGYSISSGYYWGWIRQPPGKGLEWIGSISHTGNTYYNPPLKSRVTISVDTSKNQFSLKLSSVTAADTAVYYCARFLGFGRPEYWGKGTLVTVSSGGGGSGGGGSGGGGSALSSELTQDPPVSVALGQTVTLTCQGDSLRTYYASWYQQKSGQAPILLLYGKHKRPSGIPDRFSGSTSGDTASLTITGAQAEDEADYYCNSRDSSGNPHVLFGGGTQLTVL | 53.7 | 7.9 | 178
12 | scFv L23 (scFv) scFv: QVQLQESGPGLVKTSETLSLTCAVSGYSISSGYYWGWIRQPPGKGLEWIGSISHTGNTYYNPPLKSRVTISVDTSKNQFSLKLSSVTAADTAVYYCARGGGISRPEYWGKGTLVTVSSGGGGSGGGGSGGGGSALSSELTQDPPVSVALGQTVTLTCQGDSLRTYYASWYQQKSGQAPILLLYGKHKRPSGIPDRFSGSTSGDTASLTITGAQAEDEADYYCSARSVRGNPHVLFGGGTQLTVL |  | 1.5 | 15.3
13 | scFv L4 (scFv) scFv: QVQLQESGPGLVKTSETLSLTCAVSGYSISSGYYWGWIRQPPGKGLEWIGSISHTGNTYYNPPLKSRVTISVDTSKNQFSLKLSSVTAADTAVYYCARGGGISRPEYWGKGTLVTVSSGGGGSGGGGSGGGGSALSSELTQDPPVSVALGQTVTLTCQGDSLRTYYASWYQQKSGQAPILLLYGKHKRPSGIPDRFSGSTSGDTASLTITGAQAEDEADYYCSTRSSKGNPHVLFGGGTQLTVL |  | 2.1 | ~60
14 | scFv L2 (scFv) scFv: QVQLQESGPGLVKTSETLSLTCAVSGYSISSGYYWGWIRQPPGKGLEWIGSISHTGNTYYNPPLKSRVTISVDTSKNQFSLKLSSVTAADTAVYYCARGGGISRPEYWGKGTLVTVSSGGGGSGGGGSGGGGSALSSELTQDPPVSVALGQTVTLTCQGDSLRTYYASWYQQKSGQAPILLLYGKHKRPSGIPDRFSGSTSGDTASLTITGAQAEDEADYYCVARSVVGNPHVLFGGGTQLTVL | 2.41 | 3.1 | 37.5
15 | scFv L3 (scFv) scFv: QVQLQESGPGLVKTSETLSLTCAVSGYSISSGYYWGWIRQPPGKGLEWIGSISHTGNTYYNPPLKSRVTISVDTSKNQFSLKLSSVTAADTAVYYCARGGGISRPEYWGKGTLVTVSSGGGGSGGGGSGGGGSALSSELTQDPPVSVALGQTVTLTCQGDSLRTYYASWYQQKSGQAPILLLYGKHKRPSGIPDRFSGSTSGDTASLTITGAQAEDEADYYCVSRAVVGNPHVLFGGGTQLTVL | 13.8 | 27.6 | ~7
16 | scFv L13 (scFv) scFv: QVQLQESGPGLVKTSETLSLTCAVSGYSISSGYYWGWIRQPPGKGLEWIGSISHTGNTYYNPPLKSRVTISVDTSKNQFSLKLSSVTAADTAVYYCARGGGISRPEYWGKGTLVTVSSGGGGSGGGGSGGGGSALSSELTQDPPVSVALGQTVTLTCQGDSLRTYYASWYQQKSGQAPILLLYGKHKRPSGIPDRFSGSTSGDTASLTITGAQAEDEADYYCVTRNRYGNPHVLFGGGTQLTVL | 1.25 | 11 | 257
17 | scFv L1 (scFv) scFv: QVQLQESGPGLVKTSETLSLTCAVSGYSISSGYYWGWIRQPPGKGLEWIGSISHTGNTYYNPPLKSRVTISVDTSKNQFSLKLSSVTAADTAVYYCARGGGISRPEYWGKGTLVTVSSGGGGSGGGGSGGGGSALSSELTQDPPVSVALGQTVTLTCQGDSLRTYYASWYQQKSGQAPILLLYGKHKRPSGIPDRFSGSTSGDTASLTITGAQAEDEADYYCASRSVSGNPHVLFGGGTQLTVL | 28.8 | 3.7 | ~55
